Laboratory results reported in publication PMC1919378 (BMC Structural Biology, 2007).

T1: Gnd1 (6PGDH/Gnd1) (Saccharomyces cerevisiae, UniProt P38720)
T1 construct: full length, 489 residues; pET28a-derived vector, E. coli Rosetta (DE3); homodimer; residues 1-476 seen in crystal
T1 sequence (P38720 1-489): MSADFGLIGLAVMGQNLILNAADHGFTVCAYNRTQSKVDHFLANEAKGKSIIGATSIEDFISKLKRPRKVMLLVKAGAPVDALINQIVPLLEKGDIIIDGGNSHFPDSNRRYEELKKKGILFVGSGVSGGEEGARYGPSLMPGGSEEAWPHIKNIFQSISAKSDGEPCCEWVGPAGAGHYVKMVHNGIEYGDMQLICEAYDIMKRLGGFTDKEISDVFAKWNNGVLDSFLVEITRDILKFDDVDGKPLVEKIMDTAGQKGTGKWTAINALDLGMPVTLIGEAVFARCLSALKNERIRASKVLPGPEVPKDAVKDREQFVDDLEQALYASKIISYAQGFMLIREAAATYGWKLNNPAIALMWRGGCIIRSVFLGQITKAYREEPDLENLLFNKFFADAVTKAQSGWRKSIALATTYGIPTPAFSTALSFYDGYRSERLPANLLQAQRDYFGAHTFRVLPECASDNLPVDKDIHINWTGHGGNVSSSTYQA

B1: Saccharomyces cerevisiae 6-phosphogluconate dehydrogenase Gnd1 (enzyme, S. cerevisiae, UniProt P38720 1-489, looked up)
chain: MSADFGLIGLAVMGQNLILNAADHGFTVCAYNRTQSKVDHFLANEAKGKSIIGATSIEDFISKLKRPRKVMLLVKAGAPVDALINQIVPLLEKGDIIIDGGNSHFPDSNRRYEELKKKGILFVGSGVSGGEEGARYGPSLMPGGSEEAWPHIKNIFQSISAKSDGEPCCEWVGPAGAGHYVKMVHNGIEYGDMQLICEAYDIMKRLGGFTDKEISDVFAKWNNGVLDSFLVEITRDILKFDDVDGKPLVEKIMDTAGQKGTGKWTAINALDLGMPVTLIGEAVFARCLSALKNERIRASKVLPGPEVPKDAVKDREQFVDDLEQALYASKIISYAQGFMLIREAAATYGWKLNNPAIALMWRGGCIIRSVFLGQITKAYREEPDLENLLFNKFFADAVTKAQSGWRKSIALATTYGIPTPAFSTALSFYDGYRSERLPANLLQAQRDYFGAHTFRVLPECASDNLPVDKDIHINWTGHGGNVSSSTYQA
notes: 6-phosphogluconate dehydrogenase Gnd1, S. cerevisiae strain S288C, ORF YHR183W/GND1, 489 residues; residues 1-476 are seen in the crystal structure; The asymmetric unit holds one monomer (final model 1-476 for one monomer); the dimer is described as the biological unit; also called 6PGDH/Gnd1; 6PGDH
B2: Gnd1ΔC53 (domain or fragment, S. cerevisiae, UniProt P38720 1-436, looked up)
chain: MSADFGLIGLAVMGQNLILNAADHGFTVCAYNRTQSKVDHFLANEAKGKSIIGATSIEDFISKLKRPRKVMLLVKAGAPVDALINQIVPLLEKGDIIIDGGNSHFPDSNRRYEELKKKGILFVGSGVSGGEEGARYGPSLMPGGSEEAWPHIKNIFQSISAKSDGEPCCEWVGPAGAGHYVKMVHNGIEYGDMQLICEAYDIMKRLGGFTDKEISDVFAKWNNGVLDSFLVEITRDILKFDDVDGKPLVEKIMDTAGQKGTGKWTAINALDLGMPVTLIGEAVFARCLSALKNERIRASKVLPGPEVPKDAVKDREQFVDDLEQALYASKIISYAQGFMLIREAAATYGWKLNNPAIALMWRGGCIIRSVFLGQITKAYREEPDLENLLFNKFFADAVTKAQSGWRKSIALATTYGIPTPAFSTALSFYDGYRSER
notes: 6-phosphogluconate dehydrogenase Gnd1, S. cerevisiae, ORF YHR183W/GND1, residues 1-436 of 489 (C-terminal 53 residues, the entire C-terminal tail, deleted); Cloned into the pET28a-derived vector and purified as the full-length protein; also called Gnd1 without the C-terminal 53 residues; source: E. coli Rossetta (DE3), purified (Ni2+ chromatography, Superdex 200 gel filtration)
B3: Gnd1ΔC35 (domain or fragment, S. cerevisiae, UniProt P38720 1-454, looked up)
chain: MSADFGLIGLAVMGQNLILNAADHGFTVCAYNRTQSKVDHFLANEAKGKSIIGATSIEDFISKLKRPRKVMLLVKAGAPVDALINQIVPLLEKGDIIIDGGNSHFPDSNRRYEELKKKGILFVGSGVSGGEEGARYGPSLMPGGSEEAWPHIKNIFQSISAKSDGEPCCEWVGPAGAGHYVKMVHNGIEYGDMQLICEAYDIMKRLGGFTDKEISDVFAKWNNGVLDSFLVEITRDILKFDDVDGKPLVEKIMDTAGQKGTGKWTAINALDLGMPVTLIGEAVFARCLSALKNERIRASKVLPGPEVPKDAVKDREQFVDDLEQALYASKIISYAQGFMLIREAAATYGWKLNNPAIALMWRGGCIIRSVFLGQITKAYREEPDLENLLFNKFFADAVTKAQSGWRKSIALATTYGIPTPAFSTALSFYDGYRSERLPANLLQAQRDYFGAHTF
notes: 6-phosphogluconate dehydrogenase Gnd1, S. cerevisiae, ORF YHR183W/GND1, residues 1-454 of 489 (C-terminal 35 residues deleted); Cloned into the pET28a-derived vector and purified as the full-length protein; also called Gnd1 without the C-terminal 35 residues; source: E. coli Rossetta (DE3), purified (Ni2+ chromatography, Superdex 200 gel filtration)
B4: Gnd1ΔC39 (domain or fragment, S. cerevisiae, UniProt P38720 1-450, looked up)
chain: MSADFGLIGLAVMGQNLILNAADHGFTVCAYNRTQSKVDHFLANEAKGKSIIGATSIEDFISKLKRPRKVMLLVKAGAPVDALINQIVPLLEKGDIIIDGGNSHFPDSNRRYEELKKKGILFVGSGVSGGEEGARYGPSLMPGGSEEAWPHIKNIFQSISAKSDGEPCCEWVGPAGAGHYVKMVHNGIEYGDMQLICEAYDIMKRLGGFTDKEISDVFAKWNNGVLDSFLVEITRDILKFDDVDGKPLVEKIMDTAGQKGTGKWTAINALDLGMPVTLIGEAVFARCLSALKNERIRASKVLPGPEVPKDAVKDREQFVDDLEQALYASKIISYAQGFMLIREAAATYGWKLNNPAIALMWRGGCIIRSVFLGQITKAYREEPDLENLLFNKFFADAVTKAQSGWRKSIALATTYGIPTPAFSTALSFYDGYRSERLPANLLQAQRDYFG
notes: 6-phosphogluconate dehydrogenase Gnd1, S. cerevisiae, ORF YHR183W/GND1, residues 1-450 of 489 (C-terminal 39 residues deleted); Cloned into the pET28a-derived vector and purified as the full-length protein; also called Gnd1 without the C-terminal 39 residues; source: E. coli Rossetta (DE3), purified (Ni2+ chromatography, Superdex 200 gel filtration)

What was measured:
[1] = target: T1, Gnd1 (6PGDH/Gnd1); test: X-ray crystal structure, […] Å; format: binding; details: crystallised from 1.28 M tri-sodium citrate pH 6.5; two citrates per monomer in the 6-phosphogluconate site, contacts from both chains
[2] = target: the molecule itself; test: crystal structure; hanging-drop vapour diffusion at 15°C, 1.28 M tri-sodium citrate pH 6.5; 2.37 Å, molecular replacement; two citrate molecules bound to each monomer
[3] = substrate: NC(=O)c1ccc[n+]([C@@H]2O[C@H](COP(=O)(O)OP(=O)(O)OC[C@H]3O[C@@H](n4cnc5c(N)ncnc54)[C@H](OP(=O)(O)O)[C@@H]3O)[C@@H](O)[C@H]2O)c1; test: purified protein; details: co-substrate 6-phosphogluconate (0.1-0.5 mM, varied), Gly-Gly 50 mM pH 7.5, MgCl2 10 mM, 28°C, ionic strength 0.03
[4] = target: the molecule itself; test: SEC; dimer found 'through purification and crystallization'; purification by Ni2+ chromatography and gel filtration on Superdex 200 (20 mM Tris-HCl pH 8.0, 200 mM NaCl, 20 mM β-mercaptoethanol); 'homodimer in solution'

| Molecule | stoichiometry N [4] | other results |
| --- | --- | --- |
| O=C(O)CC(O)(CC(=O)O)C(=O)O [citrate] |  | X-ray crystal structure, 2.37 Å [1]: two citrate molecules were bound to the active site of each Gnd1 monomer |
| B1 |  | stoichiometry N [2]: 2; Km [3]: 35 ± 6 µM |
| B2 | 2 |  |
| B3 | 2 |  |
| B4 | 2 |  |
